Measured values as given in publication doi:10.1101/2022.05.31.494220.

Molecular target: peptide encoding HTP-3 closure motif #4 (C. elegans)
Experiment: fluorescence polarisation

| Kd [nM] | Binder |
| --- | --- |
| 220 | HIM-3 (wildtype) (natural protein) ATKEQIVEHRESEIPIASQWKATFPVDLEIEKNSEMFALRYIKCASAFILDRRGILDEKCFKTRTIDKLLVTAFQSSVPAAKRVSSTFDGLRDAIQQGYLREFAIVFYKKPNEEDINEVFAFRFAYGDEGEIFVSLNNGIDTNESSQELLQAKFVDTDNTKQMFASTIKKLHRCIKKMEPLPQGSDASFRVSYTEKAPKDYTPEGYLLSPMFYTLNQDIRKASIGIVCGGHHKIQMLAASQYLKQDFDLDKTTTLNPNMSIMANQSKRKGRISRDSPYGLSQGITKKNKD |
| 690 | HIM-3^R93Y (natural protein) ATKEQIVEHRESEIPIASQWKATFPVDLEIEKNSEMFALRYIKCASAFILDRRGILDEKCFKTRTIDKLLVTAFQSSVPAAKRVSSTFDGLYDAIQQGYLREFAIVFYKKPNEEDINEVFAFRFAYGDEGEIFVSLNNGIDTNESSQELLQAKFVDTDNTKQMFASTIKKLHRCIKKMEPLPQGSDASFRVSYTEKAPKDYTPEGYLLSPMFYTLNQDIRKASIGIVCGGHHKIQMLAASQYLKQDFDLDKTTTLNPNMSIMANQSKRKGRISRDSPYGLSQGITKKNKD |
